In this assay the target is F-actin in a glycerinated muscle fiber (rabbit (endogenous in psoas muscle fiber)) (UniProt P68135). As to the kind of experiment: fluorescence intensity of a labeled muscle fiber.

In turn, “phalloidin-(fluorescein isothiocyanate) FITC complex (peptide)” yielded a stoichiometry N (mol of the toxin per mol of actin) of 1.

The record behind these values is article PMC2112731.
